Laboratory results from patent publication US20050277588A1 (AFFYMAX, published 2005).
Where no end group is shown, it is not given here. The star is where a group is joined. Biotin = O=C1N[C@H]2[C@H](CS[C@H]2CCCCC(=O)*)N1

T1: granulocyte-colony stimulating factor receptor (G-CSFR), purified / soluble receptor used in the binding … (UniProt Q99062 25-627, limits assumed)
T1 construct: also called G-CSF receptor; soluble G-CSFR harvest
T1 sequence (looked up): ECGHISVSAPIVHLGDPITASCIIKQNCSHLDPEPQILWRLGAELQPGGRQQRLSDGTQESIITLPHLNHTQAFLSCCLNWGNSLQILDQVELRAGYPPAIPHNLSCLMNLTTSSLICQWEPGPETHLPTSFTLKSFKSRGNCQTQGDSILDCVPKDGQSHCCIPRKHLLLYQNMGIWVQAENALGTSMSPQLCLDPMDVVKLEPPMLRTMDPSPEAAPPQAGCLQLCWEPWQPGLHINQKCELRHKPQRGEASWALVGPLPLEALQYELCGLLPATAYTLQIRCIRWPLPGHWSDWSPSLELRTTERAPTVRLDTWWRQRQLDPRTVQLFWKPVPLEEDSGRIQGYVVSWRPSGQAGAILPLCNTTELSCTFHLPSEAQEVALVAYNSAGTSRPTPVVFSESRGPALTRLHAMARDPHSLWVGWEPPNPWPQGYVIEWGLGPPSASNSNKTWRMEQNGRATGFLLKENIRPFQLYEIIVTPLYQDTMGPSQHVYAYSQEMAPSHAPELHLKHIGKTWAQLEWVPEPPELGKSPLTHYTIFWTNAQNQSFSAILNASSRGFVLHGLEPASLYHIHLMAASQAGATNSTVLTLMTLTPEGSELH


biological target: T1, granulocyte-colony stimulating factor …; experiment: SPA competition with 125I-G-CSF on G-CSFR-coated beads; grade defined in paragraph 137
Procedure: (§1) Streptavidin-coated scintillation proximity assay (SPA) beads (Amersham) were mixed with biotinylated anti-receptor immobilizing antibody (Ab179) followed by incubation with soluble G-CSFR harvest. Receptor-coated SPA beads were washed twice in PBS/0.1% BSA and distributed to wells of a white polystyrene 96-well microtiter plate (Packard). Serial dilutions of peptide or peptide mimetic were mixed with a constant amount of ¹²⁵I labeled G-CSF (10⁵ cpm; 1290 Ci/mmol) in PBS/0.1% BSA, added to wells containing receptor-coated SPA beads, and incubated overnight at 4° C. The binding of radiolabeled G-CSF to the receptor-coated SPA bead brings the isotope in close proximity to the scintillant, which allows the emitted radiation to stimulate the scintillant to emit light. […] The amount of ¹²⁵I labeled G-CSF that was bound at equilibrium was measured by counting the plate in a TopCount (Wallac) microtiter plate luminometer. The assay is conducted over a range of peptide concentrations and the results are graphed such that the y-axis represents the amount of bound ¹²⁵I labeled G-CSF and the x-axis represents the concentration of peptide or peptide mimetic. One can determine the concentration at which the peptide or peptide mimetic will reduce by 50% (IC₅₀) the amount of ¹²⁵I labeled G-CSF bound to immobilized G-CSFR. The dissociation constant (Kd) for the peptide should be similar to the measured IC₅₀ using the assay conditions described above.

Row | Binder | IC50 [µM]
1 | H-LLDICELKLQECARRCN-OH (also: oxidation state as tested not given here, active only after oxidation, as a dimer, also called Ex. No. 53; Ex. 78 peptide) [Example 53 peptide LLDICELKLQECARRCN (AF15846), oxidation state as tested not stated] | ≤ 0.5
2 | YLELCQLRLEECARQFN (also called Ex. No. 70) [Example 70 peptide YLELCQLRLEECARQFN] | ≤ 200
3 | CSTGGGLTAERDAEKRRWLLTHGGE (also: homodimer linked through the N-terminal Cys residues, also called Ex. No. 67) [Example 67 dimer of CSTGGGLTAERDAEKRRWLLTHGGE] | ≤ 200
4 | H-EQSNSGWVWVGGGGC-NH2 (also: homodimer linked through the C-terminal Cys residues, also called Ex. No. 46) [Example 46 dimer of NH2-EQSNSGWVWVGGGGC-CONH2] | ≤ 200
5 | H-STAERLWFCG-NH2 (also: homodimer via interchain disulfide between the Cys residues, also called Ex. No. 37; Ex. 76) [Example 37 dimer of NH2-STAERLWFCG-CONH2] | ≤ 200
6 | H-DLWYLESKLEECARRCNG-NH2 (not fully specified (bridges); cysteine pairing not given here, also called Ex. No. 51) [Example 51 peptide DLWYLESKLEECARRCNG] | ≤ 200
7 | H-DLWYLESKLEEAARRCNG-NH2 (also: homodimer via interchain disulfide between the Cys residues, also called Ex. No. 52) [Example 52 dimer of DLWYLESKLEEAARRCNG] | ≤ 200
8 | H-DLWYLESKLEECARRANG-NH2 (also: disulfide at 12, other end not in the chain, T0034 draws this dimer as [H]-...-[NH2]; also called Ex. No. 50) [Example 50 dimer of DLWYLESKLEECARRANG] | ≤ 200
9 | Biotin-KGGGMLAERKAEERRWFNTHGRE (also called Ex. No. 63) [Example 63 peptide Biotin-KGGGMLAERKAEERRWFNTHGRE] | ≤ 200

Other lines, results leading:

Row | IC50 [µM] | Binder
10 | ≤ 200 | H-EQSNSGWVWV-NH2 (also called Ex. No. 35; Ex. 74) [Example 35 peptide NH2-EQSNSGWVWV-CONH2]
11 | ≤ 200 | Biotin-KLLDIAELKLQECARRCN (cysteine pairing not given here, also called Ex. No. 62) [Example 62 peptide Biotin-KLLDIAELKLQECARRCN]
12 | ≤ 200 | Biotin-KLLDICELKLQEAARRCN (cysteine pairing not given here, also called Ex. No. 60) [Example 60 peptide Biotin-KLLDICELKLQEAARRCN]
13 | ≤ 200 | CGCHVSPVQIKALC (also called Ex. No. 71) [Example 71 peptide CGCHVSPVQIKALC]
14 | ≤ 200 | H-EQSNSGWVWVGGGGC-NH2 (also called Ex. No. 45) [Example 45 peptide NH2-EQSNSGWVWVGGGGC-CONH2 (monomer)]
15 | ≤ 0.5 | LGIEGRTGGGLLDICELKLQECARRCN (also called Ex. No. 56) [Example 56 peptide LGIEGRTGGGLLDICELKLQECARRCN]
16 | ≤ 0.5 | GRTGGGLLDICELKLQECARRCN (also called Ex. No. 55) [Example 55 peptide GRTGGGLLDICELKLQECARRCN]
17 | ≤ 200 | LLDICELKLQECARRAN (not fully specified (bridges); cysteine pairing not given here, also called Ex. No. 57) [Example 57 peptide LLDICELKLQECARRAN]
18 | ≤ 200 | H-LLDICELKLQEAARRCN-OH (not fully specified (bridges); cysteine pairing not given here, also called Ex. No. 58) [Example 58 peptide LLDICELKLQEAARRCN]
19 | ≤ 200 | Biotin-LLDICELKLQECARRAN (cysteine pairing not given here, also called Ex. No. 59) [Example 59 peptide Biotin-LLDICELKLQECARRAN]
20 | ≤ 200 | H-LLDIAELKLQECARRCN-OH (not fully specified (bridges); cysteine pairing not given here, also called Ex. No. 61) [Example 61 peptide LLDIAELKLQECARRCN]
21 | ≤ 0.5 | GGGLLDICELKLQECARRCN (also called Ex. No. 54) [Example 54 peptide GGGLLDICELKLQECARRCN]

biological target: T1, granulocyte-colony stimulating factor …; experiment: SPA competition with 125I-G-CSF on G-CSFR-coated beads; hybrid grade, at or near the cutoff
Procedure: as §1

Row | IC50 [µM] | Binder
22 | ~200 | Example 64 lysine-linked dimer MLAERKAEERRWFNTHGRE / MLAERKAEERRWFNTHGREK (also: chain 1 C-terminus joined to the C-terminal Lys of chain 2 (branch link drawn), also called Ex. No. 64) peptide 1: MLAERKAEERRWFNTHGRE peptide 2: MLAERKAEERRWFNTHGREK-NH2
23 | ~200 | ALLMCESKLAECARAR (also called Ex. No. 49) [Example 49 peptide ALLMCESKLAECARAR]
24 | ~200 | CESRLVECSRM (also called Ex. No. 47) [Example 47 peptide CESRLVECSRM]
25 | ~200 | LAHCLLRLEECAAG (also called Ex. No. 48) [Example 48 peptide LAHCLLRLEECAAG]

biological target: T1, granulocyte-colony stimulating factor …; experiment: specific binding to G-CSFR (total minus non-specific binding with excess unlabeled ligand)

Row | binding result | Binder
26 | no binding | CTWTDLESVY (also called Ex. No. 10) [Example 10 peptide CTWTDLESVY]
27 | no binding | CFWSDWGQTC (also called Ex. No. 11) [Example 11 peptide CFWSDWGQTC]
28 | no binding | CQRAGYMLAC (also called Ex. No. 8) [Example 8 peptide CQRAGYMLAC]
29 | no binding | CHANPVWGEC (also called Ex. No. 9) [Example 9 peptide CHANPVWGEC]
30 | no binding | CETLCGACFC (also called Ex. No. 15) [Example 15 peptide CETLCGACFC]
